Test results taken from article doi:10.1101/2022.07.26.501514, “Structural plasticity of Atg18 oligomers: organization of assembled tubes and scaffolds at the isolation membrane” (bioRxiv, 2022).

Biological target: the molecule itself
Experiment: cryo-EM structure; helical tubes of Atg18, 20 uM in tube buffer (20 mM HEPES, 100 mM KAc, 1 mM DTT, pH 7.2); segmented helical reconstruction, rise 19.4 A, rotation 70.0 degrees

B1: Atg18-PR72AA (Atg2 binding mutant) (natural protein, Saccharomyces cerevisiae, UniProt P43601 1-500, looked up)
chain: MSDSSPTINFINFNQTGTCISLGTSKGFKIFNCEPFGKFYSEDSGGYAIVEMLFSTSLLALVGIGDQPALSAARLRIINTKKHSIICEVTFPTSILSVKMNKSRLVVLLQEQIYIYDINTMRLLHTIETNPNPRGLMAMSPSVANSYLVYPSPPKVINSEIKAHATTNNITLSVGGNTETSFKRDQQDAGHSDISDLDQYSSFTKRDDADPTSSNGGNSSIIKNGDVIVFNLETLQPTMVIEAHKGEIAAMAISFDGTLMATASDKGTIIRVFDIETGDKIYQFRRGTYATRIYSISFSEDSQYLAVTGSSKTVHIFKLGHSMSNNKLDSDDSNMEEAAADDSSLDTTSIDALSDEENPTRLAREPYVDASRKTMGRMIRYSSQKLSRRAARTLGQIFPIKVTSLLESSRHFASLKLPVETNSHVMTISSIGSPIDIDTSEYPELFETGNSASTESYHEPVMKMVPIRVVSSDGYLYNFVMDPERGGDCLILSQYSILMD
notes: Atg18, Saccharomyces cerevisiae, Uniprot ID P43601, with P72 and R73 changed to alanines; also called Atg18-P72R73; Atg18-PR72R73; source: E. coli BL21(DE3), purified (Ni-NTA, TEV cleavage, second Ni-NTA, gel filtration Superdex 200); not shown: 6xHis, N-terminal, cleaved
- binding result: binds
